Reference: patent publication US20220363740A1 (Sanofi, published 2022)
Where two headings read alike, the source gives them in different places.

Key:
Human TGFβ1 (human) [1] = molecular target: Human TGFβ1 (human) (UniProt P01137); assay: SPR (Biacore), apparent KD, 105 RU TGFβ1 immobilized on the chip
Human TGFβ1 (human) [2] = molecular target: Human TGFβ1 (human) (UniProt P01137); assay: SPR (Biacore), apparent KD, 24 RU TGFβ1 immobilized on the chip
Human TGFβ1 (human) [3] = molecular target: Human TGFβ1 (human) (UniProt P01137); assay: SPR (Biacore), apparent KD, 544 RU TGFβ1 immobilized on the chip
Human TGFβ1 [4] = molecular target: T1, Human TGFβ1 (human, UniProt P01137 279-390)
Human TGFβ1 [5] = molecular target: T1, Human TGFβ1; assay: SPR
Human TGFβ1 [6] = molecular target: T1, Human TGFβ1; assay: SPR (Biacore), apparent KD, 105 RU TGFβ1 immobilized on the chip
Human TGFβ1 [7] = molecular target: T1, Human TGFβ1; assay: SPR (Biacore), apparent KD, 24 RU TGFβ1 immobilized on the chip
Human TGFβ1 [8] = molecular target: T1, Human TGFβ1; assay: cell-based or functional assay
Human TGFβ1 [9] = molecular target: T1, Human TGFβ1; assay: SPR (Biacore), apparent KD, 544 RU TGFβ1 immobilized on the chip

Human TGFβ1 (human), sequence (P01137 279-390 limits assumed): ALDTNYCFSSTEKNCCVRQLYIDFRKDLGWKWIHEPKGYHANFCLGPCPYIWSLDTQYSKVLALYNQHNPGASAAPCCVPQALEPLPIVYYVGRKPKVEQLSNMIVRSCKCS
T1 sequence (P01137 279-390 limits assumed): as above

scFv CAT191 diabody (scFv diabody 5aa)
Kd (Human TGFβ1 (human) [1]): 3.9 nM | Kd (Human TGFβ1 (human) [2]): 4.1 nM | Kd (Human TGFβ1 (human) [3]): 4.8 nM

GC1008 (antibody)
IC50 (read off the curve), TGFβ1-stimulated IL-11 production (A549 bioassay) (Human TGFβ1 [4]): 0.01 nM

B1: Leucine zipper peptide-derived dimer (other)
scFv: EVQLVESGGGVVQPGRSLRLSCAASGFTFSSYGMHWVRQAPGKELEWVAVISYDGSIKYYADSVKGRFTISRDNSKNTLYLQMNSLRAEDTAVYYCARTGEYSGYDTDPQYSWGQGTTVTVSSSGGGSGGGGSGGGGSEIVLTQSPSSLSASVGDRVTITCRSSQGIGDDLGWYQQKPGKAPILLIYGTSTLQSGVPSRFSGSGSGTDFTLTINSLQPEDFATYYCLQDSNYPLTFGGGTRLEIKRAAAHHHHHHGAAEQKLISEEDLNGAAPKPSTPPGSSGELEELLKHLKELLKGPRKGELEELLKHLKELLKGGAPGGHHHHHH
notes: CAT191 scFv fused to tags and a leucine zipper peptide; Expressed in E. coli and only partially purified when tested
binding result (Human TGFβ1 [5]): binds

B2: CAT191(scFv) (scFv)
scFv: EVQLVESGGGVVQPGRSLRLSCAASGFTFSSYGMHWVRQAPGKELEWVAVISYDGSIKYYADSVKGRFTISRDNSKNTLYLQMNSLRAEDTAVYYCARTGEYSGYDTDPQYSWGQGTTVTVSSSGGGSGGGGSGGGGSEIVLTQSPSSLSASVGDRVTITCRSSQGIGDDLGWYQQKPGKAPILLIYGTSTLQSGVPSRFSGSGSGTDFTLTINSLQPEDFATYYCLQDSNYPLTFGGGTRLEIK
notes: Parental scFv; also called scFv(CAT191)
Kd (Human TGFβ1 [6]): 1.6 nM | Kd (Human TGFβ1 [7]): 1.7 nM | IC50 (read off the curve), TGFβ1-stimulated IL-11 production (A549 bioassay) (Human TGFβ1 [8]): ~0.4 nM | Kd (Human TGFβ1 [9]): 1.3 nM
